The text below walks through data of PMC7668254.

The data set has as its target T1, DROSHA fragment D3;DGCR8 fragment G1 (human;human, UniProt Q9NRR4;Q8WYQ5 390-1365;728-750, |).
T1 sequence 1: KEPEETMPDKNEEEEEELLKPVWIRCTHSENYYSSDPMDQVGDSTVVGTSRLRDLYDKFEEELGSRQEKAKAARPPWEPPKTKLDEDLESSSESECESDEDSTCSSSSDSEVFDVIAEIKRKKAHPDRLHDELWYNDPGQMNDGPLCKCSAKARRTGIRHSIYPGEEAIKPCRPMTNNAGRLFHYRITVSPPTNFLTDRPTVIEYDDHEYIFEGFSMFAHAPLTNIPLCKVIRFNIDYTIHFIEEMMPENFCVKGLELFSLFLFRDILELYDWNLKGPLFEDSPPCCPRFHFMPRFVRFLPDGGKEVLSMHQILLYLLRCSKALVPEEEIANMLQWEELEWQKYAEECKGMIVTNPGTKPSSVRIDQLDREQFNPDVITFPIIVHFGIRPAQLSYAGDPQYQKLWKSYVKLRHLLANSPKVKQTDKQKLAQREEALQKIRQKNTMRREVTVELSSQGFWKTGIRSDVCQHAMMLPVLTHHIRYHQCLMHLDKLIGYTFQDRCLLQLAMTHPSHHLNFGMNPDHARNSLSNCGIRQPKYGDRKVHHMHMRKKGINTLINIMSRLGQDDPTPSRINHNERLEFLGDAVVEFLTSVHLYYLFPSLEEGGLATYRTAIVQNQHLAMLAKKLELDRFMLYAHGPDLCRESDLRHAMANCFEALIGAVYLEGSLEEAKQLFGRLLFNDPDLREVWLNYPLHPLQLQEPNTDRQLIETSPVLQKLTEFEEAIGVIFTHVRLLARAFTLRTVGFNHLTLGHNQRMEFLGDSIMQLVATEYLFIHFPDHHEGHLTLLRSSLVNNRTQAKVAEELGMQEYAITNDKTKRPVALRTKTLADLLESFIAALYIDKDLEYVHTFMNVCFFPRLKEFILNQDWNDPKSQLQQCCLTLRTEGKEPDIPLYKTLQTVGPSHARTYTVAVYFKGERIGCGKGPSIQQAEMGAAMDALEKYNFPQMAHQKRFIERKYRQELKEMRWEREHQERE
T1 sequence 2: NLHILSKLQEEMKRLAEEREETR
Briefly: EMSA; 2 mM EDTA; 1.5 pmol RNA, 5-25 pmol D3-G1 in 10 uL; 50 mM Tris-HCl pH 7.5, 150 mM NaCl, 0.2 mg/ml BSA, 10% glycerol, 2 mM EDTA, 1 mM DTT; on ice 60 min; 4% native PAGE in 1x TBE at 4 C. The conditions noted are these: protein: recombinant;recombinant; tags: ;; copies: 1;2; hairpin. A general note: Mobility shift assays separate free from complexed probe on a gel.

B1: Short pri-mir-146a_C (structured_RNA)
RNA: GGAGAACUGAAUUCCAUGGGUUGUGUCAGUGUCAGACCUCUGAAAUUCAGUUCUUCAG
For B1, the binding result is listed as “binds”.
